Experimental data from article PMC9168836, “Clamping of DNA shuts the condensin neck gate” (Proceedings of the National Academy of Sciences of the …, 2021).

B1: Smc2 (natural protein, budding yeast (S. cerevisiae))
chain: MKVEELIIDGFKSYATRTVITDWDPQFNAITGLNGSGKSNILDAICFVLGIASMSTVRASSLQDLIYKRGQAGVTKASVTIVFDNTDKSNSPIGFTNSPQISVTRQVVLGGTSKYLINGHRAPQQSVLQLFQSVQLNINNPNFLIMQGKITKVLNMKPSEILSLIEEAAGTKMFEDRREKAERTMSKKETKLQENRTLLTEEIEPKLEKLRNEKRMFLEFQSTQTDLEKTERIVVSYEYYNIKHKHTSIRETLENGETRMKMLNEFVKKTSEEIDSLNEDVEEIKLQKEKELHKEGTISKLENKENGLLNEISRLKTSLSIKVENLNDTTEKSKALESEIASSSAKLIEKKSAYANTEKDYKMVQEQLSKQRDLYKRKEELVSTLTTGISSTGAADGGYNAQLAKAKTELNEVSLAIKKSSMKMELLKKELLTIEPKLKEATKDNELNVKHVKQCQETCDKLRARLVEYGFDPSRIKDLKQREDKLKSHYYQTCKNSEYLKRRVTNLEFNYTKPYPNFEASFVHGVVGQLFQIDNDNIRYATALQTCAGGRLFNVVVQDSQTATQLLERGRLRKRVTIIPLDKIYTRPISSQVLDLAKKIAPGKVELAINLIRFDESITKAMEFIFGNSLICEDPETAKKITFHPKIRARSITLQGDVYDPEGTLSGGSRNTSESLLVDIQKYNQIQKQIETIQADLNHVTEELQTQYATSQKTKTIQSDLNLSLHKLDLAKRNLDANPSSQIIARNEEILRDIGECENEIKTKQMSLKKCQEEVSTIEKDMKEYDSDKGSKLNELKKELKLLAKELEEQESESERKYDLFQNLELETEQLSSELDSNKTLLHNHLKSIESLKLENSDLEGKIRGVEDDLVTVQTELNEEKKRLMDIDDELNELETLIKKKQDEKKSSELELQKLVHDLNKYKSNTNNMEKIIEDLRQKHEFLEDFDLVRNIVKQNEGIDLDTYRERSKQLNEKFQELRKKVNPNIMNMIENVEKKEAALKTMIKTIEKDKMKIQETISKLNEYKRETLVKTWEKVTLDFGNIFADLLPNSFAKLVPCEGKDVTQGLEVKVKLGNIWKESLIELSGGQRSLIALSLIMALLQFRPAPMYILDEVDAALDLSHTQNIGHLIKTRFKGSQFIVVSLKEGMFANANRVFRTRFQDGTSVVSIM
notes: Smc2, SMC subunit of budding yeast (S. cerevisiae) condensin; only the head domain and proximal coiled coil (neck) are resolved in the maps; Subunit of the wild-type condensin tetramer and pentamer used for cryo-EM
B2: Ycs4 (natural protein, S. cerevisiae)
chain: MSGFSLSEYLTKFQTTDRESYPRLQDPSRELNVIIDQLAVSPEQIDASPDSLEALIDLCHDFPHLTPKLQTQLSYLISSSLSNLSKDIKANLSSNVNFTEIGGLIPQWKRHLEEYGYLIQVLLTFLQDELHKVSSQSTNLNRSAKNSKNDSANVELFKRDCNQMENLLESITKLLEINLSKIFQTTPEKDLFIGLFTRPLFVLLEIEPVTKVSSLKMFIQRILAMCVKNHGQSSSIQSSLMTNLTYFLHLSVFNAELLKLLNDEYNYPQLTEDILKEISTRVFNAKDTTGPKAISNFLIKLSELSPGIMLRQMNLVITLLNNSSITLRCSVVEACGNIVAELAQDPQTMEHYKQQIAVLIELLEERFQDSNPYVRTKAIQGCSKICDLSSKFNKSKAKFTSLAVRSLQDRSSLVRRNSVKLLSKLLLKHPFKAIHGSQLRLSEWEEYLKGSESQLNSTLKKVESQETLNDTIERSLIEEEVEQDEGQCRTELEGSFNKSAELSRIENEVENINATNTSVLMKLKLMIVYYKDAISFIKEIHKSIELISNLLFSKNRNEVLESMDFLVLADAFDIELSEFGIKKMLHLVWMKGTNDEGTSISVHLIECYKQLFLTAPDSCNMQEKAAHIAKNLINLSIGASIADLASLEQLLGMMYEQKLIDQHVINILWAIYNSASKASMQKEQNVNNRDSEKGFSKEQIHGSIIILGMLSLADNEIALKGLESLLNIGLGAVGLKDLTLCRYSCLALERMVPKRSTIITKAINQELEDVAVKKLYAIIINYTKDNEYYPMCEQALSALFTISSKPDILATDLIREKTMMTFGKPEEEDSILSLEQSSRVVSLSQLLFIVGQVAIKTLVYLEKCEAEFKKRKIEAETRNGKVKNQGADVTNTTQDNGGDKELEMIGGTNEDDFTDAIQFVKENELLFGEKSILGKFCPIVEEIVSNSSRFSDPMLQRTATLCLEKLMCLSSKYCEKSLPLLITVMEKSPDPTIRSNAVLGLGDMAVCFNNLVDENTDYLYRRLHDENLMVQRTCLMTVTFLILAGQVKVKGQLGEMAKCLDNPDQGISDMCRLFFTELASKDNAIYNGFIDIFSNLSSDDLLGKESFKKIIKFLLTFIDKERHQKQLNEKLVGRLRKCETQKQWDDIAFVLNNLPYKNEDVTALLEQGFKVVSAKE
notes: Ycs4, HAWK (HEAT repeat) subunit of S. cerevisiae condensin

Experiments:
Settings in all cases: both partners purified
Smc4-3xStrepII [1] = biological target: T1, Smc4-3xStrepII (budding yeast (S. cerevisiae), UniProt Q12267 1-1418); assay: cryo-EM structure; condensin tetramer (Smc2, Smc4, Brn1, Ycs4) with 80-bp dsDNA, 5 mM ADP, 1 mM BeSO4, 10 mM NaF in TNT buffer (30 mM Tris/HCl, 60 mM NaCl, 1 mM TCEP, 2 mM MgCl2, pH 7.5), 30 min at room temperature; clamped head module, Forms I and II
T1 construct: Smc4, SMC subunit of budding yeast (S. cerevisiae) condensin; only the head domain, proximal coiled coil and residues 126-144 are resolved in the maps; The tag's end is read from the plasmid's name SMC4-3xStrepII; also called Scm4
T1 sequence: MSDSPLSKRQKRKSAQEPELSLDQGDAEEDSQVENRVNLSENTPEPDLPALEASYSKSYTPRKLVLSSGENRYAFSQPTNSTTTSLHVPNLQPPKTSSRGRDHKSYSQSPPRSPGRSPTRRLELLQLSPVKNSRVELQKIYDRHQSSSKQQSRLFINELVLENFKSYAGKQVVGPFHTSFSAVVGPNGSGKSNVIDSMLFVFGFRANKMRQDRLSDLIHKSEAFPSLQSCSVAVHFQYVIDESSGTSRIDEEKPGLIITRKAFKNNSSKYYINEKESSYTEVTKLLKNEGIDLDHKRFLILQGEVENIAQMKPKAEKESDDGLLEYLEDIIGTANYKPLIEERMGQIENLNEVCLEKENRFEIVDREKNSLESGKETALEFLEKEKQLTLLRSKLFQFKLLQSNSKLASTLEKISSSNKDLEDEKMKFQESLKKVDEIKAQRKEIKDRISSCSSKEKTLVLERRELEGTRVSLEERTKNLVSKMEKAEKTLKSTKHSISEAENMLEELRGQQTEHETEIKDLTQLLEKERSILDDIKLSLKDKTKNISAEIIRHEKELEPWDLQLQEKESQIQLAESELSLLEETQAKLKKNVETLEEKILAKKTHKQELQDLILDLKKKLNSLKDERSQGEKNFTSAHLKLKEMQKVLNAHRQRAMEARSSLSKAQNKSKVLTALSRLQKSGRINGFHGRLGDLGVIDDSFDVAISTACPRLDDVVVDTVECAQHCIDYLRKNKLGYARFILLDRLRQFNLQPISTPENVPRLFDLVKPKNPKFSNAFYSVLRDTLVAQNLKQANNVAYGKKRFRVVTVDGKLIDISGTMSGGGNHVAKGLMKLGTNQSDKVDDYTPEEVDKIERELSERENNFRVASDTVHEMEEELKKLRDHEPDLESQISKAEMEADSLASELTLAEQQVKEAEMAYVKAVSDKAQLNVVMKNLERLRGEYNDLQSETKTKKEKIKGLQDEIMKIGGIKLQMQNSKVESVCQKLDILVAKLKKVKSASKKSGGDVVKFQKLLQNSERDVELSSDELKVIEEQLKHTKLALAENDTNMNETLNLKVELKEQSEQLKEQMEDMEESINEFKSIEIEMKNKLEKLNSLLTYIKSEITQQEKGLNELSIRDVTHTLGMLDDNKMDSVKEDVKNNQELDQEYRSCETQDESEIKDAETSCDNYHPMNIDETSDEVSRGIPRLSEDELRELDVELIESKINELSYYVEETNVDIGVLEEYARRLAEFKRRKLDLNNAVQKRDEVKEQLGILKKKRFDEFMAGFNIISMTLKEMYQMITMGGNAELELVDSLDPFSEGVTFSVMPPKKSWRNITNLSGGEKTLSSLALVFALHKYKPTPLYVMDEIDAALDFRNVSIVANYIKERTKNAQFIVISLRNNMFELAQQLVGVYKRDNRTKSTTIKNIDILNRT

Ycs4 = biological target: B2; assay: cryo-EM structure; condensin pentamer (Smc2, Smc4, Brn1, Ycs4, Ycg1) with 80-bp dsDNA, 5 mM ADP, 1 mM BeSO4, 10 mM NaF in TNT buffer pH 7.5; separate maps of the clamped head module and of Ycg1-DNA
Smc4-3xStrepII [2] = biological target: T1, Smc4-3xStrepII; assay: as above

Row | binding result (Smc4-3xStrepII [1]) | binding result (Ycs4) | binding result (Smc4-3xStrepII [2]) | Binder
1 | binds | binds | – | B1
2 | – | – | binds | B2
